Data from patent US11419921B2, “Methods of treating neurological disorders” (EnClear Therapies, Inc., priority 2018, dated 2022).

Legend:
Type in all cases: biochemical
(GR)10 [1] = assay: (GR)10 digestion with immobilized proteases (NHS-activated agarose resin) in PBS; settings: immobilized
Experimental: (§1) Protease solutions were prepared at 2 mg/mL in sterile PBS with calcium, magnesium and 200 μL ([…]) were applied to 100 μL of pre-washed NHS-activated agarose resin in 0.8 mL centrifuge columns. Reactions were left 1.5 hour at room temperature with end-to-end mixing, after which resins were washed with 12 resin volumes of PBS. Unreacted sites were blocked with 500 μL of 1M ethanolamine for 15 minutes at room temperature and resins were further washed with 24 resin volumes. Resins were stored at 4 degrees in 500 μL of PBS containing 0.05% sodium azide as preservative.
110 μL of 50 μM (GR)10 dipeptide repeats prepared in PBS were added to each immobilized protease and incubated 5 minutes at room temperature with end-to-end mixing. Columns were spun down 1 minute at 1,000 Xg to recover digested GR dipeptides. Columns were washed with 110 μL of PBS to increase (GR)10 recovery. This procedure was repeated with 60 minutes digestion time. 100 μL of each samples were transferred to a new tube and 5 μL of 10% TFA followed by 300 μL of Dilution Solution were added. The reaction mixtures were analyzed by LC/MS to determine the concentration of GR repeats of different lengths.

(GR)10 [2] = assay: Cleavage of (GR)10 by enzymes in solution (PBS with CaCl2 and MgCl2), LC/MS of GR repeats; settings: in solution, activated with 2.5 mM DTT
Experimental: • (GR)10 dipeptide (also (GR)8, (GR)6, (GR)4, (GR)2) were synthetized by solid-phase synthesis by CanPeptide; All peptides are uncapped and supplied lyophilized with TFA as counter ions. Purity was always above 95%. • Buffer: PBS buffer containing CaCl2 and MgCl2. • Stock solution of enzyme (e.g., 10 mg/mL) (prepared per manufacturer instructions) in PBS. Activators added as necessary. • Working solution of protein of the desired concentration (e.g., 100 μg/mL) prepared immediately before use by diluting the stock solution (e.g., 5 μL of 10 mg/mL stock solution) in PBS buffer (e.g., in 495 μL of PBS). Exemplary Procedure Using 50 μM Concentrations of (GR)10
25 μL of a 100 μM solution of (GR)10 was added to each well of a 96-well plate. 25 μL of a solution of enzyme (two times the desired final enzyme concentration) was added, and the plates were incubated at room temperature. At the specified time points (5 minutes, 10 minutes, 30 minutes, 60 minutes, and 180 minutes) 2.5 μL of a 10% TFA solution were added to stop the reaction. For the time 0 min well, the TFA was added to the well before addition of the enzyme. After last time point, all samples were further diluted with 150 μL of dilution solution. The quenched reaction mixtures were analyzed by LC/MS to determine the concentration of GR repeats of different lengths.
The chromatography and mass spectrometry conditions utilized are shown in Table 2 and Table 3, respectively.

(GR)10 [3] = assay: (GR)10 digestion with immobilized proteases in human cerebrospinal fluid (CSF); settings: immobilized enzyme
Experimental: as §1
200 μM of (GR)10 were diluted in human cerebrospinal fluid (CSF) and 400 μL were applied to each immobilized proteases. The reaction was incubated 5 minutes at room temperature with end-to-end mixing. Columns were spun down 1 minute at 1,000 Xg to recover digested GR dipeptides. Columns were washed with 12 resin volumes of PBS. The procedure was repeated with 60 minutes digestion time. 100 μL of each samples were transferred to a clean tube, flash-frozen and subsequently used for LC/MS quantification of GR repeats of different lengths. The remaining 300 μL of each samples were flash-frozen and used to assess neuron toxicity.
(GR)10 was digested with exemplary immobilized enzymes as described above in the subsection titled “(GR)10 digestion with immobilized proteases in CSF” of Example 3. Clostripain experiments were conducted with and without DTT activation (no DTT during digestion). The results obtained after 5 and 60 minutes of reaction time are presented in Table 25 and shown in FIG. 5 (commercial and in-house immobilized trypsin), FIG. 6 (immobilized elastase, FIG. 7A (immobilized clostripain without DTT) and FIG. 7 (immobilized clostripain with 2.5 mM DTT).

[4] = 2.5 mM DTT, resin wash from 5 min reaction
[5] = 2.5 mM DTT, resin wash from 60 min reaction
[6] = activated with 2.5 mM DTT, 5 min reaction
[7] = activated with 2.5 mM DTT, 60 min reaction

B1: Clostripain + DTT (protein)
chain: NKNQKVTIMYYCDADNNLEGSLLNDIEEMKTGYKDSPNLNLIALVDRSPRYSSDEKVLGEDFSDTRLYKIEHNKANRLDGKNEFPEISTTSKYEANMGDPEVLKKFIDYCKSNYEADKYVLIMANHGGGAREKSNPRLNRAICWDDSNLDKNGEADCLYMGEISDHLTEKQSVDLLAFDACLMGTAEVAYQYRPGNGGFSADTLVASSPVVWGPGFKYDKIFDRIKAGGGTNNEDDLTLGGKEQNFDPATITNEQLGALFVEEQRDSTHANGRYDQHLSFYDLKKAESVKRAIDNLAVNLSNENKKSEIEKLRGSGIHTDLMHYFDEYSEGEWVEYPYFDVYDLCEKINKSENFSSKTKDLASNAMNKLNEMIVYSFGDPSNNFKEGKNGLSIFLPNGDKKYSTYYTSTKIPHWTMQSWYNSIDTVKYGLNPYGKLSWCKDGQDPEINKVGNWFELLDSWFDKTNDVTGGVNHYQW
(GR)10 [1]; [4]
  (GR)1 (normalized to GR concentration): 99.1 µM
  (GR)2 (normalized to GR concentration): 0.0 µM
  (GR)3 (normalized to GR concentration): 0.0 µM
  (GR)4 (normalized to GR concentration): 0.0 µM
  (GR)5 (normalized to GR concentration): 0.0 µM
  (GR)6 (normalized to GR concentration): 0.0 µM
  (GR)8 (normalized to GR concentration): 0.0 µM
  (GR)10 (normalized to GR concentration): 0.0 µM
(GR)10 [1]; [5]
  (GR)1 (normalized to GR concentration): 125.6 µM
  (GR)2 (normalized to GR concentration): 0.0 µM
  (GR)3 (normalized to GR concentration): 0.0 µM
  (GR)4 (normalized to GR concentration): 0.0 µM
  (GR)5 (normalized to GR concentration): 0.0 µM
  (GR)6 (normalized to GR concentration): 0.0 µM
  (GR)8 (normalized to GR concentration): 0.0 µM
  (GR)10 (normalized to GR concentration): 0.0 µM
(GR)10 [1]; [6]
  (GR)1 (normalized to GR concentration): 299.3 µM
  (GR)2 (normalized to GR concentration): 0.0 µM
  (GR)3 (normalized to GR concentration): 0.0 µM
  (GR)4 (normalized to GR concentration): 0.0 µM
  (GR)5 (normalized to GR concentration): 0.0 µM
  (GR)6 (normalized to GR concentration): 0.0 µM
  (GR)8 (normalized to GR concentration): 0.0 µM
  (GR)10 (normalized to GR concentration): 0.0 µM
(GR)10 [1]; [7]
  (GR)1 (normalized to GR concentration): 335.6 µM
  (GR)2 (normalized to GR concentration): 0.0 µM
  (GR)3 (normalized to GR concentration): 0.0 µM
  (GR)4 (normalized to GR concentration): 0.0 µM
  (GR)5 (normalized to GR concentration): 0.0 µM
  (GR)6 (normalized to GR concentration): 0.0 µM
  (GR)8 (normalized to GR concentration): 0.0 µM
  (GR)10 (normalized to GR concentration): 0.0 µM
(GR)10 [2]; 5 min reaction
  (GR)1 (normalized to GR concentration): 86.8 µM
  (GR)2 (normalized to GR concentration): 113.6 µM
  (GR)3 (normalized to GR concentration): 40.5 µM
  (GR)4 (normalized to GR concentration): 27.2 µM
  (GR)5 (normalized to GR concentration): 12.1 µM
  (GR)6 (normalized to GR concentration): 7.3 µM
  (GR)8 (normalized to GR concentration): 0.0 µM
  (GR)10 (normalized to GR concentration): 5.7 µM
(GR)10 [2]; 60 min reaction
  (GR)1 (normalized to GR concentration): 387.0 µM
  (GR)2 (normalized to GR concentration): 0.0 µM
  (GR)3 (normalized to GR concentration): 0.0 µM
  (GR)4 (normalized to GR concentration): 0.0 µM
  (GR)5 (normalized to GR concentration): 0.0 µM
  (GR)6 (normalized to GR concentration): 0.0 µM
  (GR)8 (normalized to GR concentration): 0.0 µM
  (GR)10 (normalized to GR concentration): 0.0 µM
(GR)10 [3]; 5 min reaction
  (GR)1 (normalized uM): 79.8 µM
  (GR)2 (normalized uM): 83.2 µM
  (GR)3 (normalized uM): 70.5 µM
  (GR)4 (normalized uM): 90.8 µM
  (GR)5 (normalized uM): 90.5 µM
  (GR)6 (normalized uM): 86.4 µM
  (GR)8 (normalized uM): 64.8 µM
  (GR)10 (normalized uM): 58 µM
(GR)10 [3]; 60 min reaction
  (GR)1 (normalized uM): 458.3 µM
  (GR)2 (normalized uM): 409.2 µM
  (GR)3 (normalized uM): 85.5 µM
  (GR)4 (normalized uM): 21.2 µM
  (GR)5 (normalized uM): 3 µM
  (GR)6 (normalized uM): 0 µM
  (GR)8 (normalized uM): 0 µM
  (GR)10 (normalized uM): 0 µM
